Data set [1] deals with T1, Mst77F Δ110C;Mst77F Δ100N (Drosophila melanogaster?;Drosophila …, UniProt P16909;P16909 1-105;101-215, |).
T1 sequence 1: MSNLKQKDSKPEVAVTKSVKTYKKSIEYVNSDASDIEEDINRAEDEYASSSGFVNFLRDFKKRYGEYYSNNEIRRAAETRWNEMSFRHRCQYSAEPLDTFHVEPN
T1 sequence 2: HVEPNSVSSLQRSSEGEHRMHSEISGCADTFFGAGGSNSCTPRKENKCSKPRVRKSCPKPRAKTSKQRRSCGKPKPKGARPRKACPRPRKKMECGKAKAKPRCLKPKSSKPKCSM
As to the kind of experiment: pull-down.

For data set [2], the target named is T2, Mst77F Δ110C (UniProt P16909 1-105).
T2 sequence: T1 sequence 1
As to the kind of experiment: pull-down.

Data set [3] concerns the target T3, Mst77F WT (UniProt P16909 1-215).
T3 sequence: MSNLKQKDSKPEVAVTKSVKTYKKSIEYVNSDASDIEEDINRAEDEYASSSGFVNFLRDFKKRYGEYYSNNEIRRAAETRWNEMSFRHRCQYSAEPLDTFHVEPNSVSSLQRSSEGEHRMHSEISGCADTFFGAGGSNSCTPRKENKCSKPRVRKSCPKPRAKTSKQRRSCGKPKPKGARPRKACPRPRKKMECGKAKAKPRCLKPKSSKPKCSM
The experiment in a line: FP.

The target of data set [4] is T3, Mst77F WT. As to the kind of experiment: FP. The source holds these as a separate data set.
The target of a further data set is T4, Mst77F CTD* (UniProt P16909, CTD sequence randomized).
T4 sequence: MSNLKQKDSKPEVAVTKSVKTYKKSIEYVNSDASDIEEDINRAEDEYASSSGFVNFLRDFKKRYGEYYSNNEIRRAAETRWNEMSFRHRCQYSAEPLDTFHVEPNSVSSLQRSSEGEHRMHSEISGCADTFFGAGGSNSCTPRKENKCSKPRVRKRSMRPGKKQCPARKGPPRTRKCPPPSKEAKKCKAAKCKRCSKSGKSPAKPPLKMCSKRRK
The experiment in a line: FP.

In data set [5] the target is T2, Mst77F Δ110C. The experiment in a line: FP.

Like-named read-outs stand apart in the source and are kept apart here.

B1: random 12 bp DNA, biotinylated (dsDNA)
DNA 1: GTACCACGGTAG
DNA 2: CTACCGTGGTAC
Consider B1, for which the binding result in data set [1] is on record as “binds”; with Mst77F Δ110C [2], “no binding”.

B2: poly-GC 12 bp DNA (dsDNA)
DNA 1: GCGCGCGCGCGC
DNA 2: GCGCGCGCGCGC
In the case of B2, in the data set with Mst77F WT [3], the Kd was 170 ± 60 nM.

B3: random 12 bp DNA (dsDNA)
DNA 1: GTACCACGGTAG
DNA 2: CTACCGTGGTAC
With B3, the Kd with Mst77F WT [4] was 110 ± 50 nM; with Mst77F CTD*, 60 ± 10 nM. Moreover, the binding result with Mst77F Δ110C [5] is “no binding”.

B4: poly-AT 12 bp DNA (dsDNA)
DNA 1: ATATATATATAT
DNA 2: ATATATATATAT
In the data set with Mst77F WT [3], B4 showed a Kd of 70 ± 30 nM.

Usually Kd stands for the concentration at which binding is half-saturated. Read a low Kd as higher affinity.

Source of the values: article PMC4381051.
